B1: Focal adhesion kinase 1 (Homo sapiens), Q05397 (parent)
chain: MAAAYLDPNLNHTPNSSTKTHLGTGMERSPGAMERVLKVFHYFESNSEPTTWASIIRHGDATDVRGIIQKIVDSHKVKHVACYGFRLSHLRSEEVHWLHVDMGVSSVREKYELAHPPEEWKYELRIRYLPKGFLNQFTEDKPTLNFFYQQVKSDYMLEIADQVDQEIALKLGCLEIRRSYWEMRGNALEKKSNYEVLEKDVGLKRFFPKSLLDSVKAKTLRKLIQQTFRQFANLNREESILKFFEILSPVYRFDKECFKCALGSSWIISVELAIGPEEGISYLTDKGCNPTHLADFTQVQTIQYSNSEDKDRKGMLQLKIAGAPEPLTVTAPSLTIAENMADLIDGYCRLVNGTSQSFIIRPQKEGERALPSIPKLANSEKQGMRTHAVSVSETDDYAEIIDEEDTYTMPSTRDYEIQRERIELGRCIGEGQFGDVHQGIYMSPENPALAVAIKTCKNCTSDSVREKFLQEALTMRQFDHPHIVKLIGVITENPVWIIMELCTLGELRSFLQVRKYSLDLASLILYAYQLSTALAYLESKRFVHRDIAARNVLVSSNDCVKLGDFGLSRYMEDSTYYKASKGKLPIKWMAPESINFRRFTSASDVWMFGVCMWEILMHGVKPFQGVKNNDVIGRIENGERLPMPPNCPPTLYSLMTKCWAYDPSRRPRFTELKAQLSTILEEEKAQQEERMRMESRRQATVSWDSGGSDEAPPKPSRPGYPSPRSSEGFYPSPQHMVQTNHYQVSGYPGSHGITAMAGSIYPGQASLLDQTDSWNHRPQEIAMWQPNVEDSTVLDLRGIGQVLPTHLMEERLIRQQQEMEEDQRWLEKEERFLKPDVRLSRGSIDREDGSLQGPIGNQHIYQPVGKPDPAAPPKKPPRPGAPGHLGSLASLSSPADSYNEGVKLQPQEISPPPTANLDRSNDKVYENVTGLVKAVIEMSSKIQPAPPEEYVPMVKEVGLALRTLLATVDETIPLLPASTHREIEMAQKLLNSDLGELINKMKLAQQYVMTSLQQEYKKQMLTAAHALAVDAKNLLDVIDQARLKMLGQTRPH

Variants of: B1
Details: with itb4_human ITGB4, P16144
Chain of itb4_human ITGB4, P16144 (P16144 whole entry): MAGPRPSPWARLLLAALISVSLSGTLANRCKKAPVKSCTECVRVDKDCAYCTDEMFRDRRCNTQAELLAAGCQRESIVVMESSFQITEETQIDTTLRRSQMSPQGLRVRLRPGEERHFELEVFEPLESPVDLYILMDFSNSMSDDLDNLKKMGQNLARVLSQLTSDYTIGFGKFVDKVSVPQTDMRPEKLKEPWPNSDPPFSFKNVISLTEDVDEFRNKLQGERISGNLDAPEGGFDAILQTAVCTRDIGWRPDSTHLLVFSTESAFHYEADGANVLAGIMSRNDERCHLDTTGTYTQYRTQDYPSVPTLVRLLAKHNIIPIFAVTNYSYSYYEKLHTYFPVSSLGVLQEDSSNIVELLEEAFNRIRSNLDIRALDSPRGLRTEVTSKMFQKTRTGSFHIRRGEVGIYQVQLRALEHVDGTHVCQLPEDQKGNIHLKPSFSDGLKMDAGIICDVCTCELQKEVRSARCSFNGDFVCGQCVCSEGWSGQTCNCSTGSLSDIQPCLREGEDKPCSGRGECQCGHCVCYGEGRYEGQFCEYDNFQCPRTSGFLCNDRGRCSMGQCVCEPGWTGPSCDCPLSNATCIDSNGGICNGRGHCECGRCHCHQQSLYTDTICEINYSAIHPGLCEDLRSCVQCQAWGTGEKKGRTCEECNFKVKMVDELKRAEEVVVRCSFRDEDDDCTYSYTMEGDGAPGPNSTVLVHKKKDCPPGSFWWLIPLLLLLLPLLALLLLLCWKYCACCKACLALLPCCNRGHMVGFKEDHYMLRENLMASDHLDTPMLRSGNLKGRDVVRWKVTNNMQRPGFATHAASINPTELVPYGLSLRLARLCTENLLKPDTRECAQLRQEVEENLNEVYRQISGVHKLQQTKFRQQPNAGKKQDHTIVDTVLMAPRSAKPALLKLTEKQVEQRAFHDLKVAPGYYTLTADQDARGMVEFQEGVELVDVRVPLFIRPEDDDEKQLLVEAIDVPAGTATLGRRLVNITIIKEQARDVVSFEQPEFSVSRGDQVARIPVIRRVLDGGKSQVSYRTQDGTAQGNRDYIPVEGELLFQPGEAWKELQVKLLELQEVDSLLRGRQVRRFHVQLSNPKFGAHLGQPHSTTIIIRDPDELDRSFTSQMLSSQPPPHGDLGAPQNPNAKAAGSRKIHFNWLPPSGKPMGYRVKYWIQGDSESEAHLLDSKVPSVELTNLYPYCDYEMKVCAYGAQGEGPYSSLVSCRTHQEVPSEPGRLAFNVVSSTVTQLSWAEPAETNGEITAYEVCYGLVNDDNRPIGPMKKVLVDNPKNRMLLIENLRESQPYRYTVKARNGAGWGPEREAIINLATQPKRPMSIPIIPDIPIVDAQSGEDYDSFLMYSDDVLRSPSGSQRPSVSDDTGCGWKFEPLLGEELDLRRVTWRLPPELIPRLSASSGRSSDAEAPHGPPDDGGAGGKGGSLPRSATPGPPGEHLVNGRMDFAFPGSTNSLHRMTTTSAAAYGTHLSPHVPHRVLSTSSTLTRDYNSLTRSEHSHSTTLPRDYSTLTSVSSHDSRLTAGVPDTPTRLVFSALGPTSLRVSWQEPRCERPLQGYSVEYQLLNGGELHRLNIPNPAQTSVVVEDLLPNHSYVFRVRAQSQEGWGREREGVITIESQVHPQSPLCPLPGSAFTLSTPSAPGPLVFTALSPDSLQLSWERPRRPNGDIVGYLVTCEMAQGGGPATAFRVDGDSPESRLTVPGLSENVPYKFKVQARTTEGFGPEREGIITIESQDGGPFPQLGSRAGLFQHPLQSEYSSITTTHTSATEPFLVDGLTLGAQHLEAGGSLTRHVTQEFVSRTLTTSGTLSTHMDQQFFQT

effect of a mutation on the interaction | Variant
decreasing interaction | R385A;T386A

Variants of: B1
Details: with itb4_human ITGB4, P16144
Remark: another data set of the same source

effect of a mutation on the interaction | Variant
disrupting interaction | E380A;K381A;Q382A
